Measured values taken from US20260132200A1 (Regeneron, published 2026).
Substitutions are numbered along the chain they refer to. In names and notes the source's numbering stands. Blank lines part the entries; values can stand above or below the binder they belong to.

Tests used:
[1] = molecular target: T1, human CD3 expressed on cells (Jurkat, a CD3+ human T-cell line; human T cells) (human, UniProt P07766 23-126; P04234 22-100); assay: FACS on Jurkat cells
T1 construct: also called FACS JURKAT
T1 chain 1: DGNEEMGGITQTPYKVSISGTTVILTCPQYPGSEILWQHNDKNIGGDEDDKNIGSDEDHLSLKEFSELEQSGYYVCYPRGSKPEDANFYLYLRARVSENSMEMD
T1 chain 2: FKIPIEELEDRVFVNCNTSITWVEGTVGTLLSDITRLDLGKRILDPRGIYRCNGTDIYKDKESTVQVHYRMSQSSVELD
Description: (§1) CD20×CD3 bispecific antibodies and Control constructs, as set forth in Example 1, were tested via FACS for their ability to bind to Jurkat (CD3+, CD20− human T-cell line), Raji (CD3−, CD20+ Human B-cell line), or cynomolgus PBMCs (“mkT cells”).
(§2) FACS data was acquired using the following protocol: Cells at 2×10⁵ per well were incubated with serially diluted antibodies for 30 min on ice. Post incubation, cells were washed and appropriate secondary (Jurkat, RAJI cells) or cocktail of secondary antibodies (for cyno PBMC) was added and incubated for an additional 30 minutes. After incubation, cells were washed, re-suspended in cold PBS containing 1% BSA and analyzed by flow cytometry on a BD FACS Canto II. Jurkat and Raji cells were gated by side and forward scatters, while cynomolgus T cells were also gated in a CD2+CD4+ population. The EC₅₀s for cell binding titration were determined using Prism software with values calculated using a 4-parameter non-linear regression analysis.

[2] = molecular target: T2, cynomolgus monkey CD3 on monkey T cells (CD2+CD4+ cells of cynomolgus PBMCs) (cynomolgus monkey, UniProt Q95LI5 22-198); assay: FACS on cynomolgus PBMCs, CD2+CD4+ T cells
T2 construct: whole, on cells; also called mkT cells; monkey PBMCs
Description: as §1, §2

[3] = molecular target: T3, human CD20 expressed on Raji cells (CD3-, CD20+ human B-cell line) (human, UniProt P11836 1-297); assay: cell-based or functional assay
T3 sequence: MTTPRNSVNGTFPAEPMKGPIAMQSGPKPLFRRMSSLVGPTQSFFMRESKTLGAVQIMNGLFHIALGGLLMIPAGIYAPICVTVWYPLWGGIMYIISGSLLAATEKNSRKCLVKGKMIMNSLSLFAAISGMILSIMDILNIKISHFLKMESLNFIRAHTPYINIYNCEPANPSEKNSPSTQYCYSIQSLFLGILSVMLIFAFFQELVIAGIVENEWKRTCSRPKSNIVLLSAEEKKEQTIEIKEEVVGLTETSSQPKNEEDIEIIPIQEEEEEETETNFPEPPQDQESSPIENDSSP

[4] = molecular target: T1, human CD3 expressed on cells (Jurkat, a …); assay: FACS on Jurkat cells
Description: Binding was assessed using Jurkat cells (a CD3+ human T-cell line), while proliferation of Peripheral Blood Mononuclear Cells (PBMC) was assessed using ATP catalyzed quantification (CellTiter Glo®).
FACS data was acquired using the following protocol: Cells at 2×10⁵ per well were incubated with serially diluted antibodies for 30 min on ice. Post incubation, cells were washed and secondary antibody was added and incubated for an additional 30 minutes. After incubation, cells were washed, re-suspended in cold PBS containing 1% BSA and analyzed by flow cytometry with viable Jurkat cells gated by side and forward scatters. The EC₅₀s for cell binding titration were determined using Prism software with values calculated using a 4-parameter non-linear regression analysis.

[5] = molecular target: T1, human CD3 expressed on cells (Jurkat, a …); assay: cell-based or functional assay
[6] = molecular target: T4, Soluble heterodimeric CD3 protein (hCD3-epsilon/hCD3-delta) with either a human Fc tag (hFcΔAdp/hFc) or a … (human, UniProt P07766 23-126; P04234 22-100); assay: SPR Biacore 25C antigen-capture
T4 construct: Soluble construct; not shown: Fc tag: human (hFcΔAdp/hFc)
T4 chain 1: T1 chain 1
T4 chain 2: T1 chain 2
Description: (§3) Measurements were conducted on a T200 Biacore instrument.
In the antigen-capture format, heterodimeric CD3 protein was captured using a rabbit anti-mouse Fc or mouse anti-human Fc and the respective antibodies were injected over the captured antigen.
(§4) Kinetic association (kₐ) and dissociation (kd) rate constants were determined by processing and fitting the data to a 1:1 binding model using Scrubber 2.0 curve fitting software. Binding dissociation equilibrium constants (KD) and dissociative half-lives (t_{1/2}) were calculated from the kinetic rate constants as: KD (M)=kd/kₐ; and t_{1/2} (min) (ln 2/(60*kd). NT=not tested; NB=no binding observed.

[7] = molecular target: T4, Soluble heterodimeric CD3 protein …; assay: SPR Biacore 25C antibody-capture
Description: as §3
Heterodimeric CD3 protein was purified using the method described in Davis et al. (US2010/0331527).
as §4

T2 sequence (Q95LI5 22-198): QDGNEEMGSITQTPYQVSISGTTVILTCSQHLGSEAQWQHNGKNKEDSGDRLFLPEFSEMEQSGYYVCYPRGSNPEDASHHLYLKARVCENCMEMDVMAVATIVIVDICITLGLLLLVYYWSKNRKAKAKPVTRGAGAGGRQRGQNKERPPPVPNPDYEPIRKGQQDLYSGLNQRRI

B2: H2M2709N (antibody, mouse IgG2, V domains shown)
VH: QVQLVESGGGVVQPGRSLRLSCAASGFTFRSFGMHWVRQAPGRGLEWVAMIYFDGKNKYYADSVRGRFTISRDNSKNTLYLEMSSLRAEDTAVYFCARGPGYNWLDPWGQGTLVTVSS
VL: EIVMTQSPATLSVSPGERVTLSCRASQSISRNLAWYQQKPGQAPRLLIYGASTRATGVPARFSGSGSGTEFTLTISSLQSEDFAVFHCQQYNNRPLTFGGGTEVEIK
notes: mouse IgG2 Fc (H2M), human variable regions
- EC50 [4]: 0.711 nM
- U937 Cytotoxicity Human T-cells [M] (EC50) [5]: 3.47e-12 M

B3: H2M2776N (antibody, V domains shown)
VH: B2 VH
VL: B2 VL with T20I, S52T, H87Y
notes: mouse IgG2 Fc, human variable regions
- Kd [6]: 0.14 nM
- T½ [6]: 52 min
- koff [6]: 0.000222 s⁻¹
- kon [6]: 1.58e+06 M⁻¹ s⁻¹
- Kd [7]: 10.2 nM
- koff [7]: 0.000639 s⁻¹
- kon [7]: 62900 M⁻¹ s⁻¹

Continued, in another order:

- binding result [1]: no binding
- binding result [2]: no binding
- CDC EC50, Raji [3]: 0.247 nM
- CDC EC50, Raji SCID1 [3]: 51.9 nM
- CDC EC50, Raji SCID2 [3]: 0.229 nM
- CDC EC50, Raji SCID3 [3]: 5.71 nM
- CDC EC50, Raji SCID4 [3]: 1.14 nM
B1: Control IV: monoclonal anti-CD20 antibody 3B9-10 (antibody, V domains shown)
VH: EVQLVESGGGLVQPGRSLRLSCVASGFTFNDYAMHWVRQAPGKGLEWVSVISWNSDSIGYADSVKGRFTISRDNAKNSLYLQMHSLRAEDTALYYCAKDNHYGSGSYYYYQYGMDVWGQGTTVTVSS
VL: B2 VL with V19A, I29V, R31S, A51T, V58I, F86Y, H87Y, R94W, E103K
notes: also called Control IV (anti-CD20)

- EC50 [4]: 0.491 nM
B4: H2M2776N (antibody, mouse IgG2, V domains shown)
VH: B2 VH
VL: B2 VL with T20I, S52T, H87Y
notes: as for B2
- U937 Cytotoxicity Human T-cells [M] (EC50) [5]: 4.06e-12 M
